Measured values published in patent US20240043489A1, “Cytokine Prodrugs Comprising a Cleavable Linker” (Trutino Biosciences Inc., priority 2020, published 2024).
Read-outs that look alike come from different tables or passages of the source.

B1: Construct AA: SEQ ID NO 811: m IL2-SGG-FHRRIKA-MMPcs1-2x(G4S)-mIL2Ra(1-215)-mu IgG1 Fc (protein)
chain: APTSSSTSSSTAEAQQQQQQQQQQQQHLEQLLMDLQELLSRMENYRNLKLPRMLTFKFYLPKQATELKDLQCLEDELGPLRHVLDLTQSKSFQLEDAENFISNIRVTVVKLKGSDNTFECQFDDESATVVDFLRRWIAFCQSIISTSPQSGGFHRRIKAGPLGVRGGGGGSGGGGSELCLYDPPEVPNATFKALSYKNGTILNCECKRGFRRLKELVYMRCLGNSWSSNCQCTSNSHDKSRKQVTAQLEHQKEQQTTTDMQKPTQSMHQENLTGHCREPPPWKHEDSKRIYHFVEGQSVHYECIPGYKALQRGPAISICKMKCGKTGWTQPQLTCVDEREHHRFLASEESQGSRNSSPESETSCPITTTDFPQPTETTAMTETFVLTMEYKGCKPCICTVPEVSSVFIFPPKPKDVLTITLTPKVTCVVVDISKDDPEVQFSWFVDDVEVHTAQTQPREEQFNSTFRSVSELPIMHQDWLNGKEFKCRVNSAAFPAPIEKTISKTKGRPKAPQVYTIPPPKEQMAKDKVSLTCMITDFFPEDITVEWQWNGQPAENYKNTQPIMDTDGSYFVYSKLNVQKSNWEAGNTFTCSVLHEGLHNHHTEKSLSHSPGK
B2: Construct EE: SEQ ID NO 815: m IL2-SGG-GGWSHW-MMPcs1-2x(G4S)-mIL2Ra(1-215)-mu IgG1 Fc (protein)
chain: APTSSSTSSSTAEAQQQQQQQQQQQQHLEQLLMDLQELLSRMENYRNLKLPRMLTFKFYLPKQATELKDLQCLEDELGPLRHVLDLTQSKSFQLEDAENFISNIRVTVVKLKGSDNTFECQFDDESATVVDFLRRWIAFCQSIISTSPQSGGGGWSHWGPLGVRGGGGGSGGGGSELCLYDPPEVPNATFKALSYKNGTILNCECKRGFRRLKELVYMRCLGNSWSSNCQCTSNSHDKSRKQVTAQLEHQKEQQTTTDMQKPTQSMHQENLTGHCREPPPWKHEDSKRIYHFVEGQSVHYECIPGYKALQRGPAISICKMKCGKTGWTQPQLTCVDEREHHRFLASEESQGSRNSSPESETSCPITTTDFPQPTETTAMTETFVLTMEYKGCKPCICTVPEVSSVFIFPPKPKDVLTITLTPKVTCVVVDISKDDPEVQFSWFVDDVEVHTAQTQPREEQFNSTFRSVSELPIMHQDWLNGKEFKCRVNSAAFPAPIEKTISKTKGRPKAPQVYTIPPPKEQMAKDKVSLTCMITDFFPEDITVEWQWNGQPAENYKNTQPIMDTDGSYFVYSKLNVQKSNWEAGNTFTCSVLHEGLHNHHTEKSLSHSPGK

Tests used:
Collagen type I = Collagen type I (Homo sapiens, UniProt P02452+P08123); details: binds to Collagen type I; Note 1 of Table 2; cited from earlier work
Sequence of Collagen type I (P02452 162-1218 limits assumed): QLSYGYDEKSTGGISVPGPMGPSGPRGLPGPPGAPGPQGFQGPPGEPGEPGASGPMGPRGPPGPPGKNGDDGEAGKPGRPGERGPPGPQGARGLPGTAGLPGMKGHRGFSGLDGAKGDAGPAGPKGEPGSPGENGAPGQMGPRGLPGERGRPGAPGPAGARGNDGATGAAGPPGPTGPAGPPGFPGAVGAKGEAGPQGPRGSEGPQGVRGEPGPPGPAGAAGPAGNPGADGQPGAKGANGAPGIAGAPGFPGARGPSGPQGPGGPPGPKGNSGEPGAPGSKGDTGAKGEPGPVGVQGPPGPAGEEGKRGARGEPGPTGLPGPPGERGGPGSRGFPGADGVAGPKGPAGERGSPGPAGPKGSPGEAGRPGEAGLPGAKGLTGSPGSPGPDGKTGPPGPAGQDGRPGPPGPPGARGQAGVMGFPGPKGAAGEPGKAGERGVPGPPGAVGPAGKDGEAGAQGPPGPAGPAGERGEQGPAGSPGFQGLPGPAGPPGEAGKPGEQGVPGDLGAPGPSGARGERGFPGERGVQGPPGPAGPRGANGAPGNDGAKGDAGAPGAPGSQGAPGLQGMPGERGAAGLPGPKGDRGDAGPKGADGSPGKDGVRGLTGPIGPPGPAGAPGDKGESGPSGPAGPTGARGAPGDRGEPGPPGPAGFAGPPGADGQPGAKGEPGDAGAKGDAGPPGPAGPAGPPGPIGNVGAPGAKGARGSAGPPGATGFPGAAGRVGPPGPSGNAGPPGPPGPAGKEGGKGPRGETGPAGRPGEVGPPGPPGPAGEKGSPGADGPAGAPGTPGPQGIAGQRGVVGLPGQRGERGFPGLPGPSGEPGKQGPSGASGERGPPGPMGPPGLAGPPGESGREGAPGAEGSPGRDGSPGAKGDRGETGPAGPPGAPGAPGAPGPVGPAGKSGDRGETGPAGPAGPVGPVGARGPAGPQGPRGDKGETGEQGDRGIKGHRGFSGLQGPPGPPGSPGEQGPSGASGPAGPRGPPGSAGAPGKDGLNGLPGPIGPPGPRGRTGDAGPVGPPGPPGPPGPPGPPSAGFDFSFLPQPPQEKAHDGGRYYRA
Sequence of Collagen type I (P08123 80-1119 limits assumed): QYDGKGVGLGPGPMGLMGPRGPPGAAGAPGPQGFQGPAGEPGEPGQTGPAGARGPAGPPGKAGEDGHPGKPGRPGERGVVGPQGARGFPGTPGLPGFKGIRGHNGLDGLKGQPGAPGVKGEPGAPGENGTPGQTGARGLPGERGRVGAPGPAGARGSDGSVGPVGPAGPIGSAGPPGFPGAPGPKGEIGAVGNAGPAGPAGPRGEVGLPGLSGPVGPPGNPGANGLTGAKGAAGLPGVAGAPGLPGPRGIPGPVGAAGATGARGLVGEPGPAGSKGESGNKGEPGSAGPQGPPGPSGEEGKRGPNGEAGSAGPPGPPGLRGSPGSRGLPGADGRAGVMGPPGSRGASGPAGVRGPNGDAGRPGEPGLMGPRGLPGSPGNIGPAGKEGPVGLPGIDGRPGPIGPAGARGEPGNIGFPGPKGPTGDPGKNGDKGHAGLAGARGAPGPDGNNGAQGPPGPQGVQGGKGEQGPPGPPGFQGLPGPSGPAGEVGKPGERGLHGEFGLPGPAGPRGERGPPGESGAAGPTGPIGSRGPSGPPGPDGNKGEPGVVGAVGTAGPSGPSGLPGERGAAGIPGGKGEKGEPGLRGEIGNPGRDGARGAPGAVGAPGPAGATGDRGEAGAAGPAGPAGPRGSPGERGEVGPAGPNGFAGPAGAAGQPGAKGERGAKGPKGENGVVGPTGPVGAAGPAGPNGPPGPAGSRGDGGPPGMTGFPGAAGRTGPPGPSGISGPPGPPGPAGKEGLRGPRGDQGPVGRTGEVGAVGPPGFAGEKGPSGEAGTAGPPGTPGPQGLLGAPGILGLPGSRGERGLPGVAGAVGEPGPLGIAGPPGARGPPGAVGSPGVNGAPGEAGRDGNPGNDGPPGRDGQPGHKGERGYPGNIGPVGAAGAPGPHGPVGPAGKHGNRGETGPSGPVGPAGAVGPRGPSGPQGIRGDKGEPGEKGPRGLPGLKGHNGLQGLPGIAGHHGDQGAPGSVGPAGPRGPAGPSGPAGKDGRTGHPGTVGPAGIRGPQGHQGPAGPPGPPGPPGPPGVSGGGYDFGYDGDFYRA

heparin = details: Note 1, cited from earlier work
HEK-Blue™ IL-2 cells = assay: HEK-Blue IL2 reporter assay (SEAP, OD630); format: cell-based; details: Table 5C
Method: Recombinant MMP9 and/or MMP2 (R&D Systems) was first activated with p-aminophenylmercuric acetate and this activated protease or equivalent amount of activating solution without the protease was used to digest or mock digest the fusion protein for 1 hr, 2 hr, 4 hr and overnight (18-22 hr) at 37 C. Cleavage assays are set up in TCNB buffer: 50 mM Tris, 10 mM CaCl2), 150 mM NaCl, 0.05% Brij-35 (w/v), pH 7.5. Digested protein was aliquoted and stored at −80° C. prior to testing. Aliquots of digests were subsequently analyzed by SDS-PAGE followed by Western blotting to evaluate the extent of cleavage. Digests were also assessed in functional assays such as CTLL-2 proliferation and HEK-Blue Interleukin reporter assays. As shown in FIGS. 2A-E, essentially complete cleavage by MMP9 protease of the fusion proteins with functional site is seen after overnight incubation. In contrast, proteins containing a scrambled MMP cleavage site are not cut (FIG. 2E). HEK-Blue™ IL-2 cells are specifically designed to monitor the activation of the JAK-STAT pathway induced by IL-2. Indeed, stimulation with human or murine IL-2 triggers the JAK/STAT5 pathway and induces secreted embryonic alkaline phosphatase (SEAP) production. SEAP can be readily monitored when using QUANTI-Blue™, a SEAP detection medium. These cells respond to human and murine IL-2. For the HEK Blue assay, untreated and digested samples are titrated and added to 50 000 HEK Blue cells per well in 200 ul medium in a 96-well plate and incubated at 37C in 5% CO2 for 20-24 hr. The following day, levels of SEAP are measured by adding 20 uL of cell supernatant to QuantiBlue reagent, followed by 1-3 h incubation at 37C and reading absorbance at 630 nm. FIGS. 3C-J, 3Q-Y and Table 5B-5C show results obtained from IL2 fusion proteins tested in HEK Blue IL2 assay.

B16F10 melanoma = assay: In vivo efficacy of retention linker IL-2 drugs in B16F10 syngeneic model (Example 17); set-up: species or system mice
Method: In a first efficacy study, C57BL/6 mice were subcutaneously inoculated with B16F10 melanoma cells and when the average tumor volume reached on average 70-90 mm^3, animals were randomized into 5 groups based on tumor volumes (n=6 mice per treatment group). Mice were dosed intravenously every 3 days (Q3D) for a total of 5 doses according to following design:
In a second efficacy study in the same model, C57BL/6 mice were subcutaneously inoculated with B16F10 melanoma cells and when the average tumor volume reached on average 70-90 mm^3, animals were randomized into 5 groups based on tumor volumes (n=6 mice per treatment group). Mice were dosed intravenously every 3 days (Q3D) for a total of 5 doses according to following design:
On Day 20, mice received an additional dose of drug, animals were sacrificed 24 hrs later and tissues and blood (processed to serum) were collected and stored at −80C for further testing. […] This is most likely due to the higher levels of both circulating drugs in serum and resident drug in TME, which can exert prolonged anti-tumor activity even after an extended dosing holiday.

fibronectin = fibronectin (Homo sapiens, UniProt P02751); assay: IL-2 fusion protein plate binding assay to fibronectin
Sequence of fibronectin (P02751 32-2477, species assumed): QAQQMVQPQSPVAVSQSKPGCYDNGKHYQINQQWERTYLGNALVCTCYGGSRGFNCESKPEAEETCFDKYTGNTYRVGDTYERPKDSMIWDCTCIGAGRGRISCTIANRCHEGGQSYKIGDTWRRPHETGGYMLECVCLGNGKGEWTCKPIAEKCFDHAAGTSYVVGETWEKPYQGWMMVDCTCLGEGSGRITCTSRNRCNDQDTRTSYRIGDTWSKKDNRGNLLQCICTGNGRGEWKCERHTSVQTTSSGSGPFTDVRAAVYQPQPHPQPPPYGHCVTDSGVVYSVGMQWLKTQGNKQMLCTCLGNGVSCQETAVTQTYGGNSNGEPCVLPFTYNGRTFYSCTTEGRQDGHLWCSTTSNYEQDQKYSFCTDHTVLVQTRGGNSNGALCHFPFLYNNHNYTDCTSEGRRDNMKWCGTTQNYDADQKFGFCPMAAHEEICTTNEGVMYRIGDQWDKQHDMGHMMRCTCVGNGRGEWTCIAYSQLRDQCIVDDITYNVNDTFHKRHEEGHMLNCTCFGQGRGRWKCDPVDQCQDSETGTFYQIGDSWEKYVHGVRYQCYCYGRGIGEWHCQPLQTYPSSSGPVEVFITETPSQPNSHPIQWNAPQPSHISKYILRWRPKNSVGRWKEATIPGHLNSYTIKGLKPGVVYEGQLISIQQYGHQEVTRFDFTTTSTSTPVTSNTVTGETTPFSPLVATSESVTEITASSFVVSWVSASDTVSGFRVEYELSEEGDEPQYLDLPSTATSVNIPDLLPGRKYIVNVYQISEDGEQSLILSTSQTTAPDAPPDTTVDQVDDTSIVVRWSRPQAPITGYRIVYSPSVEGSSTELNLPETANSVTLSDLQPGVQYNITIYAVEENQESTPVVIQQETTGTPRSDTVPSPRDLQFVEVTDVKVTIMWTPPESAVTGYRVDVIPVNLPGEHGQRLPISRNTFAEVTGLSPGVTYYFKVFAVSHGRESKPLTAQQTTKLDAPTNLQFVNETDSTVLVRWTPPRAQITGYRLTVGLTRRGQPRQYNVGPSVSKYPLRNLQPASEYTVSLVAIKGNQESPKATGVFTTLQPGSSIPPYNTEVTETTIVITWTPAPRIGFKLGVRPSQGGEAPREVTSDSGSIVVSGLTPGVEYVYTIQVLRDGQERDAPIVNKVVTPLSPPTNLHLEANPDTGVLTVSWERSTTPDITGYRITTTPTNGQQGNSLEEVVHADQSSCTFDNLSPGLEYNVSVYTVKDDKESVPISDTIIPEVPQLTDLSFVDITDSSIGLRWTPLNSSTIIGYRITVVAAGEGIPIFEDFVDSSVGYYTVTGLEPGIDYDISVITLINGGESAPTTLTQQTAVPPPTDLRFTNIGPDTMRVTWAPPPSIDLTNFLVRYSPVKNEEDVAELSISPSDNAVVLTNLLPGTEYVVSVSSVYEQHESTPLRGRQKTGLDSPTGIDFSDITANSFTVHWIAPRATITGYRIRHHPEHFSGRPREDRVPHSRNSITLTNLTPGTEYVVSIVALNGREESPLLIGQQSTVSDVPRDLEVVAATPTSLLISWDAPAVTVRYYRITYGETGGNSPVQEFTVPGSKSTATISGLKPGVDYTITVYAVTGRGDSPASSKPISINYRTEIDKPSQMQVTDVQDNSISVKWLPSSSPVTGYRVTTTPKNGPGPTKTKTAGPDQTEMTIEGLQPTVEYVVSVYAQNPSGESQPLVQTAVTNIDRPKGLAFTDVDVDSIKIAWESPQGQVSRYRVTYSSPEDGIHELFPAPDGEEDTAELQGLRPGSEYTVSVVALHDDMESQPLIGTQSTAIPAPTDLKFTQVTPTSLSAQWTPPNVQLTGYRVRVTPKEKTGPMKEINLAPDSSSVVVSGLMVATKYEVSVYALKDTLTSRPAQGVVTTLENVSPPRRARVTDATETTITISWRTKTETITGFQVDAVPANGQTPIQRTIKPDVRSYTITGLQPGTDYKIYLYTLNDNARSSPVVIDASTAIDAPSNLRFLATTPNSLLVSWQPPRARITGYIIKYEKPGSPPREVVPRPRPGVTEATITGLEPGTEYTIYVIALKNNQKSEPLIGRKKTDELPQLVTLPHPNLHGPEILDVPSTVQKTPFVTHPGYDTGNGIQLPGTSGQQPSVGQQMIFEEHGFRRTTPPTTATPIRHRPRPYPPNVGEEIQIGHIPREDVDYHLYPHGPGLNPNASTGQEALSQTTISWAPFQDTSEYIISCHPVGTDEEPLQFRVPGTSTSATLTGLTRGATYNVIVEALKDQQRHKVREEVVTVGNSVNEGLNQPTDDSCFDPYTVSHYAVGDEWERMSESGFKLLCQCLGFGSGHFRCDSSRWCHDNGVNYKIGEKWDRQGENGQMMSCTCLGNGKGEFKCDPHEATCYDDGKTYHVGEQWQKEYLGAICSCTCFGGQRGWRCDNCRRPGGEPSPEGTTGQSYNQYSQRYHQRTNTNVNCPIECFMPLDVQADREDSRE
Method: A similar plate-based assay was developed to interrogate binding of IL-2 fusion variants to fibronectin. 96-well plates were coated with 4 ug/mL of fibronectin (Sigma) or control BSA for 18-22 h at room temperature on shaker (350 rpm). After washing, wells are blocked with protein-free blocking buffer (Pierce) for 90 min, then fusion proteins are titrated in blocking buffer-0.1% Tween 20 pH 7.5 and/or pH 6 and added for 1 hr at room temperature with shaking. After washing, an anti-mouse IL-2 biotin-labelled detection antibody (JES6-5H4, ThermoFisher) is added and binding is detected using Ultra Streptavidin HRP (ThermoFisher). The plate was developed by adding the chromogenic tetramethylbenzidine substrate (Ultra TMB, ThermoFisher). The reaction is stopped by addition of 0.5M H2SO4 and the absorbance is read at 450-650 nm.

[1] = cleaved with MMP9, read-out: +MMP EC50

Molecule	Kd (Collagen type I) [nM]	affinity of binding to heparin at low pH (heparin)	further results
192 (LRELHLNNN) [Construct 192]	170	–	–
193 (WREPSFCALS) [Construct 193]	100000	–	–
645 (TTEPSEEHNHHK) [Construct 645]	–	binds to heparin at low pH (lower affinity)	–
643 (TTEPSEEHNHHK) [Construct 643]	–	binds to heparin at low pH (low affinity)	–
194 (TKKTLRT) [Construct 194]	≤ 100000	–	–
646 (TTEPSEEHNHHKHHDK) [Construct 646]	–	binds to heparin at low pH (lower affinity)	–
189 (RRANAALKAGELYKSILYGC) [Construct 189]	860	–	–
642 (KHAHLKKQVSDHIAVY) [Construct 642]	–	binds to heparin at low pH (high affinity)	–
648 (KVEHRVKKRPPTWRHNVRAKYT) [Construct 648]	–	–	binding to heparin, pH dependence (heparin): binds to heparin at low pH
191 (MIVIELGTNPLKSSGIENGAFQGMKK) [Construct 191]	394	–	–
644 (KHAHL) [Construct 644]	–	binds to heparin at low pH (lower affinity)	–
650 (KKRPPTWRHNV) [Construct 650]	–	–	binding to heparin, pH dependence (heparin): binds to heparin at low pH
649 (GGKVEHRVKKRPPTWRHNVRAKYT) [Construct 649]	–	–	binding to heparin, pH dependence (heparin): binds to heparin at low pH
647 (HKGQHR) [Construct 647]	–	binds to heparin at low pH (lower affinity)	–
197 (HVWMQAPGGGK) [Construct 197]	61000	–	–
195 (CPKESCNLFVLKD) [Construct 195]	681	–	–
196 (WREPSFCALS) [Construct 196]	100000	–	–
B1	–	–	EC50 (HEK-Blue™ IL-2 cells; [1]): 0.0109 nM; EC50 (HEK-Blue™ IL-2 cells; uncleaved, read-out: −MMP EC50): 0.442 nM
B2	–	–	TGI (%) D 15 (B16F10 melanoma; 10 mg/kg IV Q3D, 5 doses): 39.32%; TGI (%) D 20 (B16F10 melanoma; 10 mg/kg, 7 days following the fifth dose): 37.61%; EC50 (HEK-Blue™ IL-2 cells; [1]): 0.0066 nM; EC50 (HEK-Blue™ IL-2 cells; uncleaved, read-out: −MMP EC50): 1.18 nM; fibronectin binding at acidic pH (fibronectin; pH 6): preferentially binds fibronectin at acidic pH; fibronectin binding at pH 7.5 (fibronectin; pH 7.5 (neutral)): no binding is observed
